Publication PMC7202667, “UNBRANCHED3 Expression and Inflorescence Development is Mediated by UNBRANCHED2 and the Distal Enhancer, KRN4, in Maize”

Molecular target: T1, UB2 (UNBRANCHED2), GST fusion (Zea mays, UniProt A0A804LTB0 =M+82-402, internal_change)
T1 sequence: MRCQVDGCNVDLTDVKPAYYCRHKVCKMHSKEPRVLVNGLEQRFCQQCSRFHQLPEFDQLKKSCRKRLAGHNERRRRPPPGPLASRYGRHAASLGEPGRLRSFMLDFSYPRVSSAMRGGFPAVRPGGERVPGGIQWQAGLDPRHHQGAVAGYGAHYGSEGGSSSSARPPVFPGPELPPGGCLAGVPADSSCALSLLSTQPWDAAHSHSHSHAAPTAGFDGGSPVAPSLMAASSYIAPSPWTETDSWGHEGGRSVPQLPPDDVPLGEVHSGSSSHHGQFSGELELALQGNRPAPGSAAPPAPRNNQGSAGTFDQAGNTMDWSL
Assay: EMSA; poly(dI-dC), 5 mM MgCl2; EMSA: 10 mM Tris pH 7.5, 50 mM KCl, 1 mM DTT, 5 mM MgCl2, 2.5% glycerol, poly(dI-dC), 0.05% NP-40; 20-40 ng protein, probe 10 fM (so in the source); room temperature
Settings: protein: recombinant; tags: N-GST (pGEX-4T-1); label: 5'-biotin; blunt

B1: pUB3-P1 probe (EPUB3) (dsDNA)
DNA 1: GCCGAGGGCTTTTTGTAGACGCCAGGTACTTGCGCTTGTGGCGGCGAGCCGAGCG
DNA 2: CGCTCGGCTCGCCGCCACAAGCGCAAGTACCTGGCGTCTACAAAAAGCCCTCGGC
binding result: binds

B2: KRN4-P4 probe (EP4) (dsDNA)
DNA 1: GCGTGTTGCCTACTTGCACTAGAGAGTACGTGAGGCAAACCAAATGTTTTCTAGCGAAC
DNA 2: GTTCGCTAGAAAACATTTGGTTTGCCTCACGTACTCTCTAGTGCAAGTAGGCAACACGC
binding result: binds
